Laboratory results taken from the nanobody polyreactivity screen of Harvey et al. (2022).

assay: yeast display, Sf9 membrane polyspecificity reagent, FACS + sequencing; frameworks hold sequencing errors
Summary of the method: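 Nanobodies from a synthetic yeast display library (Saccharomyces cerevisiae BJ5465), induced 36–48 hours with galactose, were stained 1 hour at 4 °C with 10% biotinylated, detergent-solubilized Sf9 membrane reagent, enriched on streptavidin microbeads, then FACS-sorted. Anti-HA (expression) and streptavidin (reagent binding) fluorescence set low and high (top ~1%) gates. Polyreactivity labels come from the gate of origin. Genes were colony-PCR amplified, MiSeq 2 × 250 sequenced and filtered by CDR length.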

Row | Sequence | polyreactivity (PSR sort gate)
1 | QVQLVESGGGLVQAGGSLRLSCAASGITFTSYAMGWYRQAPGKERELVAAISTRVGRTYYADSVKGRFTISRDNAKNTVYLQMNSLKPEDTAVYYCAADRISQGYSTYNYWGQGTQVTVSS | high polyreactivity
2 | QVQLVESGGGLVQAGGSLRLSCAASGITFTSYVMGWYRQAPGKERELVAAIRWSGGRTYYADSVKGRFTISRDNAKNTDYLQMNTLKPAATAVYYCNRVTRSHVDYWGQGTQVTVSS | high polyreactivity
3 | QVQLVESGGGLVQAGGSLRLSCAASGITFTVNAMGWYRQAPGKERELVAAISNDGSTYYADSVKGRFTISRDNAKNTVYLQMNSLKPEDTAVYYCAADTWDDFGPYGYDYWGQGTQVTVSS | low polyreactivity
4 | QVQLVESGGGLVQAGGSLRLSCAASGITFTYYAMGWYRPAPGKERELVAAITDRGGRTYYADSVKWRFTISRDNAKKTVYLQMNRLNPDDTAVYFCNTVPTSNSRTSVYFPYYYWGQGTQVTVSS | high polyreactivity
5 | QVQLVESGGGLVQAGGSLRLSCAASGITFVAYAMGWYRQAPGKERELVAAISGGGGSTYYADSVKGRFTISRDNAKNTVYLQMNSLKPEDTAVYYCAGVYTYPLGYYHYTYDYWGQGTQVTVSS | low polyreactivity
6 | QVQLVESGGGLVQAGGSLRLSCAASGITFVDYDMGWYRQAPGKERELVAAISWSGGSTYYADSVKGRFTISRDNAKNTVYLQMNSLKPEDTAVYYFAAEVIWWVREYYYWGQGTQVTVSS | low polyreactivity
7 | QVQLVESGGGLVQAGGSLRLSCAASGITFVGNDMGWYRQAPGKERELVATISSSGTRTYYADSVKGRFTISRDNAKNTVYLQMNSLKQEDTAVYYCAARWRSYITYWFDYWGQGTQVTVSS | low polyreactivity
8 | QVQLVESGGGLVQAGGSLRLSCAASGITFVHYAMGWYIQAPGKERELVAAISEDGGSTYYADSVKGRFTISRDNAKNTVYLQMNSLKPEDTAVYYCNTYSGLWPYWRLYDYWGQGTQVTVSS | high polyreactivity
9 | QVQLVESGGGLVQAGGSLRLSCAASGITFVLNVMGWNRQAPGKERELVAAISASGGRTYYADSVKGRFTISRDNAKHTVYLQMNSLKPEDTAVYYCNAVLPRYTFRSGVFEYDWGQGTQVTVSS | high polyreactivity
10 | QVQLVESGGGLVQAGGSLRLSCAASGITFVNYAMGWYRQAPGKERELVAAISGDGGNTYYADSVKGRFTISRDNAKNTVYLQMNSLKPEDTAVYYCAATPYLYRLYGYWYRPYYYWGQGTQVTVSS | high polyreactivity
11 | QVQLVESGGGLVQAGGSLRLSCAASGITFVQYAMGWYRQAPGKERELVAAIRRGGSTSYADSVKGRFTISRDNAKNTVYLQMNSLKPEDTAVYYCARRYVWPITPLDVEYWGQGTQVTVSS | low polyreactivity
12 | QVQLVESGGGLVQAGGSLRLSCAASGITFVRYAMAWYRQAPGKEREFVAAINSIVGRTYYADSVKGRFTISRDNAKNTVYLQMNSLKPEDTAVYYCAADSNVRFGMDYWGQGTQVTVSS | low polyreactivity
13 | QVQLVESGGGLVQAGGSLRLSCAASGITFVRYAMGWYRQAPGKEREFVARISRSGASTYYADSVKGRFTISRDNAKNTVYLQMNSLKPEDTAVYYCNKVYISREDYWGQGTQVTVSS | high polyreactivity
14 | QVQLVESGGGLVQAGGSLRLSCAASGITFVRYAMGWYRQAPGKERELVAAINFSGGNTYYADSVKGRFTISRDNAKNTVYLQMNSLKPEDTAVYYCAAKRQYKRSRMYYWGQGTQVTVSS | high polyreactivity
15 | QVQLVESGGGLVQAGGSLRLSCAASGITFVYNAMGWYRQAPGKERELVAAIDFGAGSTYYADSVKGRFTISRDNAKNTVYLPMNSLKPEDTAVYYCAAGAARWYWPYDYWGQGTQVTVSS | low polyreactivity
16 | QVQLVESGGGLVQAGGSLRLSCAASGITFWAYAMGWYRPAPGKARELVAAITSGGSTNYADSVKGRFTISRDNAKNTVYLQLNSLKPEDTAVYYCAADWAYYSTALDYWGQGTQVTVSS | low polyreactivity
